{"source": "paper PMC11022532", "target": "CslA-His12 (cellulose synthase-like protein CslA from Streptomyces lividans, full length, C-terminal 12-histidine tag) (Streptomyces lividans)"}
{"substance": "Flag-tagged GlxA^12-261 (truncated GlxA lacking Region-2 and Domain 3) (domain or fragment)", "values": [{"measurement": "activity (UDP release) of the CslA–GlxA^12-261 complex against the wild-type CslA–GlxA complex", "value": 40, "unit": "%"}]}
